Experimental data as given in the DeepSol protein solubility set.

experiment: soluble on expression in E. coli; label from the status in PepcDB or PDB records

Row | Sequence | soluble on expression in E. coli
1 | AINQANRSVCITTPYFVPSADLLATLKMTAQRGIKVDIIIPKKNDSLMVQWASRAFYGELLEAGVQIHEFDGGLLHTKSVVIDQQFCLVGTVNLDMRSLWLNFELTLAVDDLEFTQQMHWLQQQYIDQSHSVVYAEWEQRPWYNRFLERVFYLFNPLL | not soluble
2 | MSNNNKYFTITKKQYKKMRRNKIELLFNVKVLKKKNGRQKFKILHEVENKPKIPIKIIEDQPESPKPLKPPKPPKPPKGPDNPEEPDSPEEPKETDQPGGPDNPNAGNKKMPTPEEYVTRKEFNEFKDSNNQRLTKIENKVDKLEVKVDKLAEIVQTQGEEIKELKVEQKAQSETLQLILKTLQKMNDRLDRMETRLDKIDSPKLEHHHHHH | soluble
3 | MCRLAVFALLAVAAVSVYGQPAGGQDVPPFLRNATPAQLQSFQQLIQANGHLTETALDGKVQAWVNQQGGKVAADWADFQKFIKGQQGQAEAAHQAAVSNFSPAAKKADADLTAISNDSSLSVQAKGQKIQAYLNSLPANVKAELEKAQGQ | soluble
4 | MAHAAAVEENQLQSLKDVAKQAPVHRKLDIQEWKTAEGAKVLFVEAHELPMFDLRLTFAAGSSQDAGTPGLSMLTNAMLNEGVPGKDTTAIAAGFEDLGASFSNGSYRDMAVAGLRSLSEADKRTQALKLFEQVIGQPTFPEDALARIKNQVLAGFEYQKQNPGKLAGLELFKRLYGEHPYAHSSDGDEKSVPTISREQLQAFHKKAYAAGNVVIALVGDLSRQEAEAIAAEVSKALPQGPALAKTVQPETPKPGLTHIDFPSEQTHLMLAQLGIDRQDPDYAALYLGNQILGGGGFGTRLMDQVREKRGLTYGIYSGFTAMQARGPFMINFQTRAELSEGALKLVQDIVRDYLANGPTQKELDDAKRELAGSFPLSTASNADIVGQLGAIGFYGLPLDYLESFLKQVEGLSVEQVRTAMAKHLDADAFVIVSAGPSVPQKLEHHHHHH | not soluble
5 | MAKAKTQFVCQNCGTVHNRWAGKCEGCGEWNTIVEEDPMGGIGSGPGKVPKKGRPVTLTSLSGEIEEAPRIPTGISELDRATGGGFVRGSAVLIGGDPGIGKSTLLMQAAAALSRRGHRVIYVSGEEAVAQVRLRAQRLGSADTDVLLAAETNVEDILATVSEGKRPDLIIIDSIQTLWSDTADSAPGTVTQVRTGVQAMIRFAKQTGATMVLVGHVTKEGQIAGPRVVEHMVDAVLYFEGDRGHHYRILRTVKNRFGPTDEIGVFEMSDGGLREVSNPSELFLGERNEKSPGAAVFAGIEGTRPVLVEVQALVAATSLGTPRRAVVGWDSSRLAMILAVLEAHCGVKLGQHDVYLNVAGGYRISEPAADMAIASALVSSLAGLALPADCVYFGEISLSGAVRPVAHTVQRLKEAEKLGFSAALLPSGSAELPKAGKGRWTEIESLPDLVAHIAGSGNRFKQVEDDEY | not soluble
6 | MKKVKLIGTLDYGKYRYPKNHPLKIPRVSLLLRFKDAMNLIDEKELIKSRPATKEELLLFHTEDYINTLMEAERSQSVPKGAREKYNIGGYENPVSYAMFTGSSLATGSTVQAIEEFLKGNVAFNPAGGMHHAFKSRANGFCYINNPAVGIEYLRKKGFKRILYIDLDAHHCDGVQEAFYDTDQVFVLSLHQSPEYAFPFEKGFLEEIGEGKGKGYNLNIPLPKGLNDNEFLFALEKSLEIVKEVFEPEVYLLQLGTDPLLEDYLSKFNLSNVAFLKAFNIVREVFGEGVYLGGGGYHPYALARAWTLIWCELSGREVPEKLNNKAKELLKSIDFEEFDDEVDRSYMLETLKDPWRGGEVRKEVKDTLEKAKASS | soluble
7 | MRGSHHHHHHTDPALRAARLFTLSESKYYLMALDAGTGSIRAVIFDLEGNQIAVGQAEWRHLAVPDVPGSMEFDLNKNWQLACECMRQALHNAGIAPEYIAAVSACSMREGIVLYNNEGAPIWACANVDARAAREVSELKELHNNTFENEVYRATGQTLALSAIPRLLWLAHHRSDIYRQASTITMISDWLAYMLSGELAVDPSNAGTTGLLDLTTRDWKPALLDMAGLRADILSPVKETGTLLGVVSSQAAELCGLKAGTPVVVGGGDVQLGCLGLGVVRPAQTAVLGGTFWQQVVNLAAPVTDPEMNVRVNPHVIPGMVQAESISFFTGLTMRWFRDAFCAEEKLIAERLGIDTYTLLEEMASRVPPGSWGVMPIFSDRMRFKTWYHAAPSFINLSIDPDKCNKATLFRALEENAAIVSACNLQQIADFSNIHPSSLVFAGGGSKGKLWSQILADVSGLPVNIPVVKEATALGCAIAAGVGAGIFSSMAETGERLVRWERTHTPDPEKHELYQDSRDKWQAVYQDQLGLVDHGLTTSLWKAPGLGLCGR | soluble
8 | AHHHHHHHRSDAAVIVVGAGPAGMMLAGELRLAGVEVVVLERLVERTGESRGLGFTARTMEVFDQRGILPRFGEVETSTQGHFGGLPIDFGVLEGAWQAAKTVPQSVTETHLEQWATGLGADIRRGHEVLSLTDDGAGVTVEVRGPEGKHTLRAAYLVGCDGGRSSVRKAAGFDFPGTAATMEMYLADIKGVELQPRMIGETLPGGMVMVGPLPGGITRIIVCERGTPPQRRETPPSWHEVADAWKRLTGDDIAHAEPVWVSAFGNATRQVTEYRRGRVILAGDSAHIHLPAGGQGMNTSIQDAVNLGWKLGAVVNGTATEELLDSYHSERHAVGKRLLMNTQAQGLLFLSGPEVQPLRDVLTELIQYGEVARHLAGMVSGLEITYDVGTGSHPLLGKRMPALELTTATRETSSTELLHTARGVLLDLADNPRLRARAAAWSDRVDIVTAVPGEVSATSGLRDTTAVLIRPDGHVAWAAPGSHHDLPMALERWFGAPLTG | soluble
9 | MSLASTVVIKEGSGSGAVAACTVPQVLEQIAQSFPESIAAISERGRITFAELEFRSNQLARLLVKRGVKVGAIVVLMTGRSIDTLIGMTAILKAGGVYMPLDVGLGPEAISGAIQDAQPALVLTEHQPALIDAIEQRRLSDELDASRLEPGDPLALELTPSLPAYVMFTSGSTGRPKGVVVPHRAIVRLVVDTDFMTLSPATVMLHAAPLAFDASTLEIWGPLLNGGQIVIVEDAVLSVDRIAETLGRFSVNAAWLTAGLFHLMVDERPEALSGLTTLLAGGDVLSPAHVRRAMALLPDCTIVNGYGPTENTTFTCCYSIPRTGWGDGPVPIGFPISGTSVHILSDTLEPVADGEEGQLCAGGIGLALGYLNRPELTAEKFIVDPLSDDPAARLYLTGDYVRRRSDGAIEFRGRRDRQVKINGVRIELDGVEQALRQDPVLADAAVVLSADRGDAKRIVAFLKPLPGDAAGDLEAGVIRRLKEQFPAQAIPSTIKVVDELPLNKNGKIDRAKLLSDLIATEQLGAGTDEEDFSDDSVGSIVADIWSALLGKSVDARANLFDLGATSLQMIAAHERIQAAIGIRFPVTDLFAHPSIAEFQACLDGASHRSLAIAGAAREGHHHHHH | soluble
10 | MGSDKIHHHHHHMDLASRLLLLLEVSELGSFVKVSELRNVNRSAISKQIGKLEKELGVHLLNRTTRSLSLTAAGSEMVNQAKQLRDLLNNSKRLAENYHSEPRGELKISSSTLFGRQYVQQAVLKFQAQYPDIRIELLLEDRIVDLVGEGFDIGFRIGEPKESNLIAKQIAQNRLLIVAAPSFIEKHGKPTTIPKLESLPAVVYSAQGLLIDKIKYLDNTGNEAFIQLNTAYKVNEVEMLINTAVAGEMLTVTTAQMIENEVLEGKLIPIMTHINLADYGTFYAVYPHRNSPLKTKLFIETLKEVVGDKRPIWETRIPGFDKMYNNKT | not soluble
11 | MAHHHHHHMLLRASASSTLRTRGASCCSGACTGLYGSGSLTVQQRFIEYWGSGVTGRTQPYAQGDMIPRVDNMRYPVNKATSAAASLTGNQSSIAYDTSSIFQVEGFSPLEKEHYQSLRGSTRHKVESLPPHIGKDVMVLLKNMSEEGLLEEHWWARVVKDFPSMKTPCTAEFKSAWEKFYTEASGVADDNEAVKAISRPFLQTQMQKNYIAYAMVWRVAERLCEAFDAVPHVTVYERRGGRLVVERVTKLMLDTIADEPWAHQETTSPLHVDISNFRAWHEAGYW | not soluble
12 | PSDTVTLFMSGDGGWRDLDKVVAGDMAKMGYPVVGIDVLRYYWEHKTPEQTAADLTDLMNHYRQKWGTKRFILAGYSFGADVMPAIYNRLAADDQNRVDAIILLAFAR | not soluble
